Data as given in the supplement of paper PMC9428881.
± gives the standard error.

Experiment: background-corrected fluorescence of 3'-dye-labeled ssDNA relative to brightest sequence (3'-GCGCG) (fraction); higher = brighter dye fluorescence (less quenching)
How it was run: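 Subtracting background from unlabeled oligos and scaling to the brightest sequence gave the reported fluorescence. Single-stranded DNA bearing a 3' Cy3 or Cy5 dye next to each of 1024 permuted pentamers was assembled on glass slides by light-directed phosphoramidite synthesis. Following a 2 h r.t. acetonitrile wash, slides were scanned at 532 or 635 nm before and after overnight ethylenediamine/ethanol deprotection, and values were averaged over 10 features per array and at least 3 syntheses.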

Sequence	background-corrected fluorescence (dye: Cy3 (3' terminal))	background-corrected fluorescence (dye: Cy5 (3' terminal))
TTTTTTGCTCATGCTCAGCATTTTTTTTTTTTTTTAGAGT [TGAGA]	0.598 ± 0.017	0.503 ± 0.029
TTTTTTCATGATGAGCATGATTTTTTTTTTTTTTTGCCTC [CTCCG]	0.354 ± 0.016	0.286 ± 0.06
TTTTTTCATGCTCATCAGCATTTTTTTTTTTTTTTGAGGT [TGGAG]	0.708 ± 0.038	0.56 ± 0.05
TTTTTTGATGCTGCTGATGCTTTTTTTTTTTTTTTCAACA [ACAAC]	0.489 ± 0.0058	0.368 ± 0.022
TTTTTTCATCATGAGCATGATTTTTTTTTTTTTTTGGCTC [CTCGG]	0.425 ± 0.028	0.337 ± 0.05
TTTTTGCATGATGATGCTGATTTTTTTTTTTTTTTTCCAC [CACCT]	0.379 ± 0.023	0.273 ± 0.016
TTTTTTGAGCAGCAGCATGCTTTTTTTTTTTTTTTCTTTA [ATTTC]	0.48 ± 0.016	0.4 ± 0.037
TTTTTTCATGCTGCTGCGCATTTTTTTTTTTTTTTGAAAT [TAAAG]	0.574 ± 0.015	0.419 ± 0.025
TTTTTTGCTGATGATGATGCTTTTTTTTTTTTTTTACCCA	0.462 ± 0.029	0.351 ± 0.019
TTTTTGCATGCGCATGATGATTTTTTTTTTTTTTTTATCC [CCTAT]	0.384 ± 0.024	0.285 ± 0.019
TTTTTGCATCATCATGAGCATTTTTTTTTTTTTTTTGGCT [TCGGT]	0.549 ± 0.017	0.442 ± 0.053
TTTTTTGAGCATCATCATGATTTTTTTTTTTTTTTCTGGC [CGGTC]	0.533 ± 0.0091	0.439 ± 0.035
TTTTTTCATGCTCAGCAGCATTTTTTTTTTTTTTTGAGTT	0.621 ± 0.031	0.422 ± 0.024
TTTTTGCATGCTCAGCATGCTTTTTTTTTTTTTTTTAGTA [ATGAT]	0.566 ± 0.018	0.491 ± 0.042
TTTTTTGCTGCTCATGATGATTTTTTTTTTTTTTTAAGCC [CCGAA]	0.443 ± 0.01	0.312 ± 0.023
TTTTTGCAGCATCAGCAGCATTTTTTTTTTTTTTTTTGTT	0.554 ± 0.018	0.405 ± 0.024
TTTTTTGCTGATGCTGCTGATTTTTTTTTTTTTTTACAAC [CAACA]	0.448 ± 0.0078	0.302 ± 0.032
TTTTTTGAGCAGCATCATGATTTTTTTTTTTTTTTCTTGC [CGTTC]	0.481 ± 0.026	0.365 ± 0.022
TTTTTTGCTGCGCATGATGATTTTTTTTTTTTTTTAATCC [CCTAA]	0.376 ± 0.013	0.29 ± 0.018
TTTTTTCATGCTGATGCTGATTTTTTTTTTTTTTTGACAC [CACAG]	0.42 ± 0.0058	0.321 ± 0.044
TTTTTTCAGCATGCTCATCATTTTTTTTTTTTTTTGTAGG [GGATG]	0.618 ± 0.027	0.51 ± 0.1
TTTTTTGCGCAGCATCAGCATTTTTTTTTTTTTTTATTGT [TGTTA]	0.589 ± 0.027	0.486 ± 0.037
TTTTTTGCTGAGCATCATGATTTTTTTTTTTTTTTACTGC [CGTCA]	0.491 ± 0.033	0.365 ± 0.028

Sequence	background-corrected fluorescence (dye: Cy3 (3' terminal))	background-corrected fluorescence (dye: Cy5 (3' terminal))
TTTTTTGAGCATCAGCATCATTTTTTTTTTTTTTTCTGTG [GTGTC]	0.559 ± 0.039	0.425 ± 0.021
TTTTTTCATGCTGCGCATGATTTTTTTTTTTTTTTGAATC [CTAAG]	0.433 ± 0.031	0.311 ± 0.025
TTTTTGCAGCATCATGCTCATTTTTTTTTTTTTTTTTGAG [GAGTT]	0.542 ± 0.0086	0.429 ± 0.016
TTTTTTGCGCATGCGCAGCATTTTTTTTTTTTTTTATATT	0.543 ± 0.019	0.392 ± 0.024
TTTTTGCATGATGATGATGCTTTTTTTTTTTTTTTTCCCA [ACCCT]	0.441 ± 0.036	0.346 ± 0.035
TTTTTTCAGCAGCAGCAGCATTTTTTTTTTTTTTTGTTTT	0.531 ± 0.019	0.368 ± 0.021
TTTTTTGCTGCTCATCATCATTTTTTTTTTTTTTTAAGGG [GGGAA]	0.649 ± 0.021	0.558 ± 0.029
TTTTTTGATGATGAGCATGCTTTTTTTTTTTTTTTCCCTA [ATCCC]	0.458 ± 0.025	0.35 ± 0.019
TTTTTTCATCAGCATGCTGATTTTTTTTTTTTTTTGGTAC [CATGG]	0.442 ± 0.016	0.349 ± 0.036
TTTTTTGCGCATCATGAGCATTTTTTTTTTTTTTTATGCT [TCGTA]	0.518 ± 0.029	0.393 ± 0.02
TTTTTTGCTGCTGATCATGATTTTTTTTTTTTTTTAACGC [CGCAA]	0.547 ± 0.021	0.436 ± 0.057
TTTTTTCATGCTGCTGATGCTTTTTTTTTTTTTTTGAACA [ACAAG]	0.505 ± 0.013	0.394 ± 0.024
TTTTTTCATGATGCTCATGCTTTTTTTTTTTTTTTGCAGA [AGACG]	0.682 ± 0.017	0.552 ± 0.035
TTTTTTGATCATGCTCATCATTTTTTTTTTTTTTTCGAGG [GGAGC]	0.723 ± 0.029	0.534 ± 0.035
TTTTTTCAGCATGCTGCTGATTTTTTTTTTTTTTTGTAAC [CAATG]	0.441 ± 0.025	0.364 ± 0.026
TTTTTTCATGCTGATGCTGCTTTTTTTTTTTTTTTGACAA [AACAG]	0.537 ± 0.032	0.415 ± 0.022
TTTTTTGATGAGCATGATCATTTTTTTTTTTTTTTCCTCG [GCTCC]	0.471 ± 0.02	0.393 ± 0.057
TTTTTTCATCAGCAGCAGCATTTTTTTTTTTTTTTGGTTT	0.536 ± 0.02	0.402 ± 0.045
TTTTTTGATCATCATCATGCTTTTTTTTTTTTTTTCGGGA [AGGGC]	0.7 ± 0.0078	0.715 ± 0.052
TTTTTGCATCATGATCATCATTTTTTTTTTTTTTTTGCGG [GGCGT]	0.603 ± 0.016	0.543 ± 0.032
TTTTTTGCTCATGCTGCGCATTTTTTTTTTTTTTTAGAAT [TAAGA]	0.59 ± 0.032	0.449 ± 0.024
TTTTTGCATGATCAGCATGCTTTTTTTTTTTTTTTTCGTA	0.59 ± 0.023	0.457 ± 0.043
TTTTTTCAGCAGCAGCATCATTTTTTTTTTTTTTTGTTTG	0.517 ± 0.028	0.33 ± 0.029

Sequence	background-corrected fluorescence (dye: Cy3 (3' terminal))	background-corrected fluorescence (dye: Cy5 (3' terminal))
TTTTTTGCTGATGAGCAGCATTTTTTTTTTTTTTTACCTT [TTCCA]	0.463 ± 0.018	0.351 ± 0.018
TTTTTGCAGCATGATGATCATTTTTTTTTTTTTTTTTCCG [GCCTT]	0.488 ± 0.011	0.366 ± 0.035
TTTTTTGCTCATGCTGATCATTTTTTTTTTTTTTTAGACG [GCAGA]	0.563 ± 0.031	0.443 ± 0.033
TTTTTTGCTCATGATCATCATTTTTTTTTTTTTTTAGCGG [GGCGA]	0.716 ± 0.013	0.577 ± 0.042
TTTTTGCAGCATCATGCTGCTTTTTTTTTTTTTTTTTGAA [AAGTT]	0.634 ± 0.019	0.527 ± 0.03
TTTTTTCATGAGCATGATGATTTTTTTTTTTTTTTGCTCC [CCTCG]	0.396 ± 0.022	0.286 ± 0.021
TTTTTTGCTGATGCGCATCATTTTTTTTTTTTTTTACATG [GTACA]	0.519 ± 0.03	0.409 ± 0.023
TTTTTGCATGCTGATGATGATTTTTTTTTTTTTTTTACCC [CCCAT]	0.408 ± 0.012	0.276 ± 0.019
TTTTTTGCTGCGCATCATGCTTTTTTTTTTTTTTTAATGA [AGTAA]	0.634 ± 0.032	0.524 ± 0.03
TTTTTTCATGATCATCAGCATTTTTTTTTTTTTTTGCGGT [TGGCG]	0.743 ± 0.026	0.566 ± 0.036
TTTTTTGATCAGCATCATGATTTTTTTTTTTTTTTCGTGC	0.504 ± 0.033	0.397 ± 0.027
TTTTTTGAGCATGCGCAGCATTTTTTTTTTTTTTTCTATT [TTATC]	0.527 ± 0.047	0.402 ± 0.056
TTTTTGCATGATCATGATGATTTTTTTTTTTTTTTTCGCC [CCGCT]	0.462 ± 0.036	0.337 ± 0.022
TTTTTTGAGCATGATCATGCTTTTTTTTTTTTTTTCTCGA [AGCTC]	0.599 ± 0.011	0.49 ± 0.03
TTTTTTGCGCAGCATGAGCATTTTTTTTTTTTTTTATTCT [TCTTA]	0.45 ± 0.021	0.326 ± 0.021
TTTTTTCATGATCATGATCATTTTTTTTTTTTTTTGCGCG	1 ± 0.024	1 ± 0.035
TTTTTTGCGCATGATGCTCATTTTTTTTTTTTTTTATCAG [GACTA]	0.56 ± 0.045	0.411 ± 0.03
TTTTTGCATGATGCGCATGATTTTTTTTTTTTTTTTCATC [CTACT]	0.406 ± 0.0046	0.305 ± 0.028
TTTTTTGCTGCGCAGCATGATTTTTTTTTTTTTTTAATTC [CTTAA]	0.419 ± 0.015	0.297 ± 0.018
TTTTTTCATGATGATGCTGCTTTTTTTTTTTTTTTGCCAA [AACCG]	0.504 ± 0.034	0.427 ± 0.041
TTTTTTGCTGCTGATCATCATTTTTTTTTTTTTTTAACGG [GGCAA]	0.652 ± 0.019	0.552 ± 0.04
TTTTTTGATCAGCATGCTGCTTTTTTTTTTTTTTTCGTAA [AATGC]	0.553 ± 0.045	0.428 ± 0.024
TTTTTTGAGCATGCTGCTGATTTTTTTTTTTTTTTCTAAC [CAATC]	0.407 ± 0.026	0.316 ± 0.032
